In patent publication US20260250651, “CAS12 PROTEINS AND USES THEREOF” (GUANGZHOU REFORGENE MEDICINE CO., LTD., published 2026):
Positions count from the first letter of the chain named.

T1: Cas12i (wild-type, from CN111757889B)
T1 chain: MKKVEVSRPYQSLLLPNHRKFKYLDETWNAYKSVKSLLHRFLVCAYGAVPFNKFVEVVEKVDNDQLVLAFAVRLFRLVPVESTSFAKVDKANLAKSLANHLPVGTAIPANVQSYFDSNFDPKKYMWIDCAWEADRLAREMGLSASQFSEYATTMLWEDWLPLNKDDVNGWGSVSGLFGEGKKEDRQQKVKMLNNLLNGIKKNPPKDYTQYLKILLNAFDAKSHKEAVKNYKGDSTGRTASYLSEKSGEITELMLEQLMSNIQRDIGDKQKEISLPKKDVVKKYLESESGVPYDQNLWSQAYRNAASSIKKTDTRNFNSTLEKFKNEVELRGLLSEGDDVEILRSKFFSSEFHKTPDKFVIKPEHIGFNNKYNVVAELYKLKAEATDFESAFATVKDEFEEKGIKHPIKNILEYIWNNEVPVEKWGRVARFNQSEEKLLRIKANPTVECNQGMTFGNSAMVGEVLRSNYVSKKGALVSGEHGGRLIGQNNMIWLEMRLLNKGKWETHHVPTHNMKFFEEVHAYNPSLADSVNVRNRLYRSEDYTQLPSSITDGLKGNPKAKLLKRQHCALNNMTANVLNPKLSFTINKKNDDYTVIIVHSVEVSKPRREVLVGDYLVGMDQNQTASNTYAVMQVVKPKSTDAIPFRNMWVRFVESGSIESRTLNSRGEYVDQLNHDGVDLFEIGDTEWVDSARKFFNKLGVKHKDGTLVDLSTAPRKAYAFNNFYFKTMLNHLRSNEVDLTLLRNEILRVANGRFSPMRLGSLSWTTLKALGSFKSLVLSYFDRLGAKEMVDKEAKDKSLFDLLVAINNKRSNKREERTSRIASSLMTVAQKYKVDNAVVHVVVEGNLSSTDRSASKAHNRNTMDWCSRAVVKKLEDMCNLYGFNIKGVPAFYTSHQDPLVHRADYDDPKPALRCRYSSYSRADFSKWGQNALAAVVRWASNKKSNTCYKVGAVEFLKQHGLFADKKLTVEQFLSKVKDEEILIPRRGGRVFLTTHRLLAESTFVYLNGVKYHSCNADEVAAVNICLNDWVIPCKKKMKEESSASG

T2: Cas12i-111 (N295R,N260R,G705R,L332R)
T2 chain: T1 chain with N260R, N295R, L332R, G705R

B1: gRNA-TTR ; TTR target (ssRNA ; dsDNA)
RNA: AGAGAAUGUGUGCAUAGUCACACCAGUAAGAUUUGGUGUCUAU
DNA 1: CAGTAAGATTTGGTGTCTAT
DNA 2: ATAGACACCAAATCTTACTG
B2: gRNA-HBB ; HBB target (ssRNA ; dsDNA)
RNA: AGAGAAUGUGUGCAUAGUCACACUAUGCAGAAAUAUUGCUAUUGCCU
DNA 1: TATGCAGAAATATTGCTATTGCCT
DNA 2: AGGCAATAGCAATATTTCTGCATA
B3: gRNA-HBG ; HBG target (ssRNA ; dsDNA)
RNA: AGAGAAUGUGUGCAUAGUCACACACAAGGCAAACUUGACCAAU
DNA 1: ACAAGGCAAACTTGACCAAT
DNA 2: ATTGGTCAAGTTTGCCTTGT

Columns and labels:
[1] = molecular target: T1, Cas12i (wild-type, from CN111757889B); assay: cell_activity; 293T indels, reference; PAM not stated
Procedure: (§1) Plating: The 293T cell line was plated when the confluence reached 70-80%, and the number of cells seeded in a 24-well plate was 5*10\hat{ }5 cells/well.
(§2) Transfection: After 12-14 hours of plating, transfection was performed. 100 μl of Opti-MEM, 1.5 μl of PEI (Yisheng Bio, Polyethylenimine Linear (PEI) MW25000), 250 ng of the mutant clone plasmid from Example 2, and 250 ng of gRNA plasmid for targeting endogenous genes were added to each well of a 24-well plate. The mixture was incubated at room temperature for 20 minutes and then added to 293T cells for transfection. After transfection overnight, the medium was replaced with fresh medium and cultured for the next period.
(§3) DNA extraction, PCR amplification, and Sanger sequencing: After culturing for 72 hours, cells were washed with PBS, and then 100 μl of cell lysis buffer (Viagen, DirectPCR® Lysis Reagent (Cell)) was added for lysis to obtain a lysate containing genomic DNA. The genomic DNA was amplified in the region near the target sequence, and the PCR product was sent to a sequencing company for Sanger sequencing.

[2] = molecular target: T2, Cas12i-111; assay: cell_activity; 293T indels
Procedure: as §1, §2, §3

| Binder | indel editing activity [1] | relative indel editing efficiency [2] |
| --- | --- | --- |
| B1 | 1 fold of wild type | 3.91 fold of wild type |
| B2 |  | 1.01 fold of Cas12i-69 |
| B3 | 1 fold of wild type | 1.53 fold of wild type |
